What was measured:
[1] = western blot of total FOXP3, HEK 293; settings: control: no OGT/OGA overexpression or no inhibitor
[2] = CHX chase, HEK 293, western blot; settings: control: no OGT/OGA overexpression or no inhibitor
[3] = not described in main text (Supplementary Fig. 2F); settings: glycan lost; control: wild-type FOXP3
[4] = CHX chase, HEK 293, OGT overexpression, western blot; settings: glycan lost; control: wild-type FOXP3
[5] = retroviral transduction of CD4+CD25- T cells, FOXP3 MFI; settings: glycan lost; control: wild-type FOXP3

Protein | expression_or_secretion ([1]; glycan gained) | degradation_or_half_life ([2]; glycan gained) | expression_or_secretion ([1]; glycan lost) | degradation_or_half_life ([2]; glycan lost) | other results
FOXP3: TMG (protein) parent chain: MPNPRPAKPMAPSLALGPSPGVLPSWKTAPKGSELLGTRGSGGPFQGRDLRSGAHTSSSLNPLPPSQLQLPTVPLVMVAPSGARLGPSPHLQALLQDRPHFMHQLSTVDAHAQTPVLQVRPLDNPAMISLPPPSAATGVFSLKARPGLPPGINVASLEWVSREPALLCTFPRSGTPRKDSNLLAAPQGSYPLLANGVCKWPGCEKVFEEPEEFLKHCQADHLLDEKGKAQCLLQREVVQSLEQQLELEKEKLGAMQAHLAGKMALAKAPSVASMDKSSCCIVATSTQGSVLPAWSAPREAPDGGLFAVRRHLWGSHGNSSFPEFFHNMDYFKYHNMRPPFTYATLIRWAILEAPERQRTLNEIYHWFTRMFAYFRNHPATWKNAIRHNLSLHKCFVRVESEKGAVWTVDEFEFRKKRSQRPNKCSNPCP | increases | increases | – | – | –
FOXP3: OGT overexpression (protein) parent chain: MPNPRPAKPMAPSLALGPSPGVLPSWKTAPKGSELLGTRGSGGPFQGRDLRSGAHTSSSLNPLPPSQLQLPTVPLVMVAPSGARLGPSPHLQALLQDRPHFMHQLSTVDAHAQTPVLQVRPLDNPAMISLPPPSAATGVFSLKARPGLPPGINVASLEWVSREPALLCTFPRSGTPRKDSNLLAAPQGSYPLLANGVCKWPGCEKVFEEPEEFLKHCQADHLLDEKGKAQCLLQREVVQSLEQQLELEKEKLGAMQAHLAGKMALAKAPSVASMDKSSCCIVATSTQGSVLPAWSAPREAPDGGLFAVRRHLWGSHGNSSFPEFFHNMDYFKYHNMRPPFTYATLIRWAILEAPERQRTLNEIYHWFTRMFAYFRNHPATWKNAIRHNLSLHKCFVRVESEKGAVWTVDEFEFRKKRSQRPNKCSNPCP | increases | increases | – | – | –
FOXP3: ST045849 (protein) parent chain: MPNPRPAKPMAPSLALGPSPGVLPSWKTAPKGSELLGTRGSGGPFQGRDLRSGAHTSSSLNPLPPSQLQLPTVPLVMVAPSGARLGPSPHLQALLQDRPHFMHQLSTVDAHAQTPVLQVRPLDNPAMISLPPPSAATGVFSLKARPGLPPGINVASLEWVSREPALLCTFPRSGTPRKDSNLLAAPQGSYPLLANGVCKWPGCEKVFEEPEEFLKHCQADHLLDEKGKAQCLLQREVVQSLEQQLELEKEKLGAMQAHLAGKMALAKAPSVASMDKSSCCIVATSTQGSVLPAWSAPREAPDGGLFAVRRHLWGSHGNSSFPEFFHNMDYFKYHNMRPPFTYATLIRWAILEAPERQRTLNEIYHWFTRMFAYFRNHPATWKNAIRHNLSLHKCFVRVESEKGAVWTVDEFEFRKKRSQRPNKCSNPCP | – | – | decreases | decreases | –
FOXP3: OGA overexpression (protein) parent chain: MPNPRPAKPMAPSLALGPSPGVLPSWKTAPKGSELLGTRGSGGPFQGRDLRSGAHTSSSLNPLPPSQLQLPTVPLVMVAPSGARLGPSPHLQALLQDRPHFMHQLSTVDAHAQTPVLQVRPLDNPAMISLPPPSAATGVFSLKARPGLPPGINVASLEWVSREPALLCTFPRSGTPRKDSNLLAAPQGSYPLLANGVCKWPGCEKVFEEPEEFLKHCQADHLLDEKGKAQCLLQREVVQSLEQQLELEKEKLGAMQAHLAGKMALAKAPSVASMDKSSCCIVATSTQGSVLPAWSAPREAPDGGLFAVRRHLWGSHGNSSFPEFFHNMDYFKYHNMRPPFTYATLIRWAILEAPERQRTLNEIYHWFTRMFAYFRNHPATWKNAIRHNLSLHKCFVRVESEKGAVWTVDEFEFRKKRSQRPNKCSNPCP | – | – | decreases | decreases | –
FOXP3: FOXP3-5A (protein) parent chain: MPNPRPAKPMAPSLALGPSPGVLPSWKTAPKGSELLGTRGSGGPFQGRDLRSGAHTSSSLNPLPPSQLQLPTVPLVMVAPSGARLGPSPHLQALLQDRPHFMHQLSTVDAHAQTPVLQVRPLDNPAMISLPPPSAATGVFSLKARPGLPPGINVASLEWVSREPALLCTFPRSGTPRKDSNLLAAPQGSYPLLANGVCKWPGCEKVFEEPEEFLKHCQADHLLDEKGKAQCLLQREVVQSLEQQLELEKEKLGAMQAHLAGKMALAKAPSVASMDKSSCCIVATSTQGSVLPAWSAPREAPDGGLFAVRRHLWGSHGNSSFPEFFHNMDYFKYHNMRPPFTYATLIRWAILEAPERQRTLNEIYHWFTRMFAYFRNHPATWKNAIRHNLSLHKCFVRVESEKGAVWTVDEFEFRKKRSQRPNKCSNPCP | – | – | – | – | other: OGT-induced transcriptional suppression activity [3]: abolishes; degradation_or_half_life [4]: decreases; expression_or_secretion [5]: decreases
